These results are taken from patent US20130164251A1 (JIANGSU T MAB BIOPHARMA, published 2013).

Holding throughout (experiment): SPR (Biacore 3000), G-CSFR amine-coupled to CM5 chip, 1:1 Langmuir fit
The target of experiment [1] is G-CSF receptor G-CSFR (R & D company, Item No. 381GR/CF) (UniProt Q99062).
Experiment [2] concerns the target T1, G-CSF receptor G-CSFR (R & D company, Item No. 381GR/CF) (UniProt Q99062 25-621, limits assumed).
T1 construct: Bought reagent, amine-coupled to a CM5 chip; also called the receptor
T1 sequence (looked up): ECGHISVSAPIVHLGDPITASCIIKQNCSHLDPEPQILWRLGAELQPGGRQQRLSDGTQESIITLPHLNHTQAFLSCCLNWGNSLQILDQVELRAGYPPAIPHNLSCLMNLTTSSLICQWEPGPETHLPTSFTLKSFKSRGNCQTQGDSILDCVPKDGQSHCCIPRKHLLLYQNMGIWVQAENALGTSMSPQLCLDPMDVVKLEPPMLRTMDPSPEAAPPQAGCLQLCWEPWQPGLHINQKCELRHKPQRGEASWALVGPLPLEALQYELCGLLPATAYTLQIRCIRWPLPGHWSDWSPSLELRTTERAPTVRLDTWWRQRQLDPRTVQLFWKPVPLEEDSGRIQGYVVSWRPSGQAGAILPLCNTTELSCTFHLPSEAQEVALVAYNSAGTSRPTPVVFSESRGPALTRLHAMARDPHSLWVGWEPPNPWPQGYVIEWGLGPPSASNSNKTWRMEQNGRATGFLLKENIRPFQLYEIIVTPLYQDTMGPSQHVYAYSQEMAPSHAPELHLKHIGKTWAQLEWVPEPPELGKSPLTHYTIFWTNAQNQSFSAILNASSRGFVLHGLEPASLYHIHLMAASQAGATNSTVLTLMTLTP
The protocol: (§1) The receptor G-CSFR (R & D company, Item No. 381GR/CF) was coupled to FC₄ cell of a CM5 chip by using an amine coupling method in Biacore® 3000 control software Wizard. HBS-P buffer (10 mM HEPES, 150 mM NaCl, and 0.005% (v/v) surfactant P20, pH 7.4) was used as the working buffer, and 1 mg/mL of G-CSFR was diluted with 10 mM NaAC (pH 4.5) to a final concentration of 20 μg/mL. A 1:1 mixture of 0.2 M EDC and 50 mM NHS was injected by flowing through the surface of the chip at a rate of 10 μL/min, G-CSFR solution was injected, then 1 M ethanolamine (pH 8.5) was injected for 7 min to block the activated chip surface.
(§2) rHSA/mG-CSF and G-CSF standards were quantitatively diluted with a HBS-P buffer, and a kinetic test was conducted following a kinetic analysis Wizard in Biacore® 3000 control software. All the samples were injected at the flow rate of 30 μL/min, and the injection time of 3 min. After 5 min of disassociation, 50 mM NaOH, 1 M NaCL, and HBS-P buffer were respectively injected for 15 s and 60 s at a flow rate of 100 μL/min for regeneration. The obtained data was fitted using a 1:1 Langmuir binding model in Biacore 3000 analysis software, to obtain exact kinetic constants: […]

In experiment [3] the target is T1, G-CSF receptor G-CSFR (R & D company, …). The protocol:
as §1, §2
This is another data set of the same source.

Read-outs that look alike come from different tables or passages of the source.

The term Kd denotes the constant that tells how readily two partners part at equilibrium. The low end stands for a tighter complex, the high end for a looser complex. “rHSA/G-CSF mutant L19I (from UniProt P09919 31-207) (ligand)” gave a Kd in experiment [1] of 11.2 nM. Take “recombinant human serum albumin-granulocyte-colony stimulating factor fusion protein (rHSA/G-CSF) (ligand)”: in experiment [1], the Kd was determined as 1.3 nM.

B1: human granulocyte-colony stimulating factor (G-CSF) (ligand)
chain: TPLGPASSLPQSFLLKCLEQVRKIQGDGAALQEKLCATYKLCHPEELVLLGHSLGIPWAPLSSCPSQALQLAGCLSQLHSGLFLYQGLLQALEGISPELGPTLDTLQLDVADFATTIWQQMEELGMAPALQPTQGAMPAFASAFQRRAGGVLVASHLQSFLEVSYRVLRHLAQP
notes: also called G-CSF standards
Turning to B1, the dissociation constant (Kd) in experiment [2] and in experiment [3] was 0.3 nM throughout.
